Assay results taken from patent US20150118286A1 (ELIXIR INSTITUTE OF REGENERATIVE MEDICINE, published 2015).

Legend:
[1] = molecular target: T1, Mushroom tyrosinase (mushroom, UniProt C7FF04 1-392); assay: cell-based or functional assay
[2] = molecular target: T1, Mushroom tyrosinase; assay: enzyme kinetics on mushroom tyrosinase, Lineweaver-Burk / nonlinear regression, differs from Table 4
Description: Tyrosinase inhibitory activity was determined in vitro using L-tyrosine or L-dopa as the substrate following a modified method from Piao, L. Z., Park, H. R., Park, Y. K., Lee, S. K., Park, J. H., and Park, M. K. (2002) Chem Pharm Bull (Tokyo) 50, 309-311. The concentration of enzyme, substrate and inhibitor was denoted as [E], [S] and [I], respectively. The experiment was conducted in a 96-well flat-bottomed plate. Each well contained 80 μl of 0.067 M potassium phosphate buffer (pH 6.8), 40 μl of 5 mg/ml L-tyrosine dissolved in 0.067 M potassium phosphate buffer (pH 6.8), 40 μl of the different concentrations of inhibitors dissolved in the same buffer, and 40 μl of 480 units/ml mushroom tyrosinase solution. The final volume of each well was 200 μl, containing 1 mg/ml [S], 96 units/ml [E] and varying concentrations of [I] ranging from 1 μM to 10 mM. For the negative control wells, the inhibitors were substituted with buffer solution and adjusted to the total volume of 200 μl. HQ served as a positive control to calibrate the assay as a wide range of IC₅₀ values has been previously reported (Neeley, E., Fritch, G., Fuller, A., Wolfe, J., Wright, J., and Flurkey, W. (2009) Int J Mol Sci 10, 3811-3823). The assay mixture was incubated at 37° C. The optical density of the reaction mixtures, which correlates with the amount of dopachrome produced, was measured at 475 nm using a Varioskan microplate reader (Thermo Electron Corporation, San Jose, Calif.) at different time periods. For assessment of the 2nd step of melanin synthesis, we used L-dopa as the substrate and freshly extracted human tyrosinase as previously described (Abu Ubeid, A., Zhao, L., Wang, Y., and Hantash, B. M. (2009) J Invest Dermatol 129, 2242-2249).
The kinetics and mode of inhibition for P16-18 (SEQ ID NO: 1, 2 and 3 respectively) and HQ was determined using a standard assay (Pomerantz, S. H. (1966) J Biol Chem 241, 161-168). As illustrated by Lineweaver-Burk plots shown in FIG. 3, the Vₘₐₓ was independent of […] for HQ and all 3 octapeptides, whereas the Kₘ was altered.

T1 sequence (C7FF04 1-392): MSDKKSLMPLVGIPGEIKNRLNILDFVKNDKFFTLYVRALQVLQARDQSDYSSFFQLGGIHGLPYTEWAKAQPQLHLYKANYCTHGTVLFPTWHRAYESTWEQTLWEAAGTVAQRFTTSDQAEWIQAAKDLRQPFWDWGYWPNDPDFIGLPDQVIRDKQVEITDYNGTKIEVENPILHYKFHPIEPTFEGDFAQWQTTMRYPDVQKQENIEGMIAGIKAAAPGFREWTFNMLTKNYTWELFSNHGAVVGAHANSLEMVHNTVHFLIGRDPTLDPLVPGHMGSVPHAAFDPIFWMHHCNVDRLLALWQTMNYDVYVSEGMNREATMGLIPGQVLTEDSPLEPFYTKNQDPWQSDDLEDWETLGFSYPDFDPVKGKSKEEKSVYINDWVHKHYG

For RRVAL [P13 peptide], the “IC50 [µM], mushroom tyrosinase inhibition (dopachrome OD 475 nm, L-tyrosine substrate)” value [1] was 2200 µM.

For RRFVLL [P14 peptide], the “IC50 [µM], mushroom tyrosinase inhibition (dopachrome OD 475 nm, L-tyrosine substrate)” value [1] was 1770 µM.

With RRWWRRYY (Synthetic octapeptide) [P16 peptide] the “IC50 [µM], mushroom tyrosinase inhibition (dopachrome OD 475 nm, L-tyrosine substrate)” value [1] was 238 µM and the Ki [2] was 167 µM.

With RRRYWYYR (Synthetic octapeptide) [P17 peptide] the “IC50 [µM], mushroom tyrosinase inhibition (dopachrome OD 475 nm, L-tyrosine substrate)” value [1] was 398 µM and the Ki [2] was 190 µM.

In the case of RRYWYWRR (Synthetic octapeptide) [P18 peptide], the “IC50 [µM], mushroom tyrosinase inhibition (dopachrome OD 475 nm, L-tyrosine substrate)” value [1] is reported as 282 µM and the Ki [2] is reported as 179 µM.
